Our source for the pIC50 Category (FACS), pIC50 and Percentage inhibition (%), reference values is patent publication US20230212549A1, “COMPOUNDS COMPRISING A […] LIGAND AND USE THEREOF” (priority 2021, published 2023).

The target of assay [1] is fibroblast activation protein (FAP) on FAP-expressing human WI-38 fibroblasts (human), Q12884. Briefly: competitive FACS, WI-38 cells, vs Cy5 tracer m3; A = pIC50 >8.0. As to conditions: remark: other sources report otherwise.
Assay [2] addresses human fibroblast activation protein (FAP) on WI-38 fibroblasts (human) (UniProt Q12884). The assay can be described thus: competitive FACS, WI-38 cells, Cy5-labeled peptide as competitor; C = pIC50 6.1 to 7.0.
The target in another assay is T1, Cathepsin F (UniProt Q9UBX1).
T1 sequence (looked up): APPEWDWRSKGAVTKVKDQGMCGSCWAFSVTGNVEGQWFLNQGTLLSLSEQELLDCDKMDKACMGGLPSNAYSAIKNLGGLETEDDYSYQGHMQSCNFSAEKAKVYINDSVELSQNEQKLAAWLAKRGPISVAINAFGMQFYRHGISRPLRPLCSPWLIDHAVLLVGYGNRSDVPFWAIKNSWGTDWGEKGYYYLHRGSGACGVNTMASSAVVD
The assay can be described thus: cell-based or functional assay.

Numbered stars: 1 amine (or outer) side, 2 acyl side, 3 side chain; on linkers, the order of the positions; unused ones are H or OH. Bridge positions count the residues as written; N and C are the ends. Square brackets hold non-standard residues; d marks the D form. Primed or numbered codes have the meaning given here. * marks the point of attachment. Ttds″ = 1,13-diamino-4,7,10-trioxatridecan-succinamic acid spacer, O=C(CCC(=O)[*:2])NCCCOCCOCCOCCCN[*:1]; N4Ac = 6-Carboxy-1,4,8,11-tetraazaundecane, an N4-chelator, NCCNCC(CNCCN)C(=O)*; mXylylene = c1cc(C[*:1])cc(C[*:2])c1; 4Pal = N[C@@H](Cc1ccncc1)C(=O)O; Nle = CCCC[C@H](N)C(=O)O; Hexanoyl = CCCCCC(=O)*

B1: Hex-[Cys(3MeBn)-Pro-Pro-Thr-Glu-Phe-Cys]-Asp-NH2 (peptide)
peptide: Hexanoyl-CPPTEFCD-NH2
modifications: linker 1-7 via mXylylene
SMILES: CCCCCC(=O)N[C@H]1CSCc2cccc(c2)CSC[C@@H](C(=O)N[C@@H](CC(=O)O)C(N)=O)NC(=O)[C@H](Cc2ccccc2)NC(=O)[C@H](CCC(=O)O)NC(=O)[C@H]([C@@H](C)O)NC(=O)[C@@H]2CCCN2C(=O)[C@@H]2CCCN2C1=O
In the case of B1, the pIC50 Category (FACS) in assay [1] was above 8 pIC50.

B2: N4Ac-Ttds-Nle-[Cys-(3MeBn)-Pro-Pro-Thr-Glu-Ppa-Cys]-OH (peptide)
peptide: N4Ac-[Ttds″][Nle]CPPTE[4Pal]C-OH
modifications: linker 3-9 via mXylylene
SMILES: CCCC[C@H](NC(=O)CCC(=O)NCCCOCCOCCOCCCNC(=O)C(CNCCN)CNCCN)C(=O)N[C@H]1CSCc2cccc(c2)CSC[C@@H](C(=O)O)NC(=O)[C@H](Cc2ccncc2)NC(=O)[C@H](CCC(=O)O)NC(=O)[C@H]([C@@H](C)O)NC(=O)[C@@H]2CCCN2C(=O)[C@@H]2CCCN2C1=O
In assay [2], B2 gave a pIC50 of 6.1 to 7 pic50.

B3: Cystatin C (protein, UniProt P01034 27-146, looked up)
chain: SSPGKPPRLVGGPMDASVEEEGVRRALDFAVGEYNKASNDMYHSRALQVVRARKQIVAGVNYFLDVELGRTTCTKTQPNLDNCPFHDQPHLKRKAFCSFQIYAVPWQGTMTLSKSTCQDA
The molecule B3 came in with a Percentage inhibition (%), reference at 1 µM with Cathepsin F of 74%.
